Assay results as given in paper PMC9482650, “Quantitative fragmentomics allow affinity mapping of interactomes” (Nature Communications, 2022).

Key:
Assay type in all cases: cell-based, human
[1] = test system: HEK293T cells; experiment: RT-qPCR of mRNA levels in stable cell lines; details: source data of Suppl Figure 4 B, stable HEK293T cell line; for DLG1 relative mRNA level / GFP relative mRNA level / MAGI1 relative mRNA level / RPLP0 relative mRNA level / SCRIB relative mRNA level / SNTB2 relative mRNA level / SNX27 relative mRNA level / SYNJ2BP relative mRNA level / TAX1BP3 relative mRNA level / p53 relative mRNA level: IRES control line about 1
Method: Cells were plated on 6-well plates. When they reached confluency, RNA was isolated by using Qiagen RNeasy Mini kit (#74104). On-column DNase digestion was done by using Qiagen RNase-Free DNase Set (#79254). 2 μg total RNA per sample was transcribed to cDNA by using SuperScript IV kit (Invitrogen, #18091050) with random hexamer primers (Thermo Fisher #SO142) according to standard protocol. For qPCR, primers were designed with the help of Primer Blast (NCBI NIH, https://www.ncbi.nlm.nih.gov/tools/primer-blast/) choosing primers which recognize all common alternative transcripts of the given gene (Supplementary Fig 4). qPCR was done by using QuantiTect SyberGreen (Qiagen, #204143) and LightCycler II equipment (Roche). Standard ΔΔCt method was used to determine relative quantity to GAPDH. For further analyses GraphPad Prism 7 software was used.

[2] = test system: HUWE1; experiment: Label-free MS proteome of stable HEK293T cell lines; details: stable HEK293T cells compared to control cell line, n = 3
Source text: Proteins were identified by database searching using SequestHT (Thermo Fisher Scientific) with Proteome Discoverer 2.4 software (PD2.4, Thermo Fisher Scientific) on human FASTA database downloaded from SwissProt (reviewed, release 2020_11_27, 20304 entries, https://www.uniprot.org/). Precursor and fragment mass tolerances were set at 7 ppm and 0.6 Da respectively, and up to two missed cleavages were allowed. Oxidation (M, +15.995 Da) was set as variable modification, and Carbamidomethylation (C, +57.021 Da) as fixed modification. Peptides and proteins were filtered with a false discovery rate at 1%. Label-free quantification was based on the extracted ion chromatography intensity of the peptides. All samples were measured in technical triplicates. The measured extracted ion chromatogram (XIC) intensities were normalized based on median intensities of the entire dataset to correct minor loading differences. […] The detection threshold for enriched proteins in AP-MS experiments were analyzed above twofold enrichment with <0.01 P value. […] In case only a specific isoform of the detected protein contains a PBM, the identified peptide fragments were manually checked to check which isoform(s) were most likely detected. […]

[3] = test system: HEK293T cells; experiment: Western blot of PDZ-proteins, p53 and E6AP in stable cell lines; details: source data of Figure 6 E, stable HEK293T cell line, IRES control line about 1

B1: E6: wild-type HPV16 E6 oncoprotein stably expressed in HEK293T cells (protein, UniProt P03126 1-158, looked up)
chain: MHQKRTAMFQDPQERPRKLPQLCTELQTTIHDIILECVYCKQQLLRREVYDFAFRDLCIVYRDGNPYAVCDKCLKFYSKISEYRHYCYSLYGTTLEQQYNKPLCDLLIRCINCQKPLCPEEKQRHLDKKQRFHNIRGRWTGRCMSCCRSSRTRRETQL
modifications: full-length
notes: wild-type HPV16 E6 oncoprotein stably expressed in HEK293T cells
**Q.** How did the “DLG1 relative mRNA level” value ([1]; replicate 1) turn out when B1 was run?
**A.** The value was 1.01.

**Q.** What about the “GFP relative mRNA level” value ([1]; replicate 1) of the same molecule?
**A.** The value was 0.3883.

**Q.** And the “MAGI1 relative mRNA level” value ([1]; replicate 1)?
**A.** Its value is 1.0722.

**Q.** And the “RPLP0 relative mRNA level” value ([1]; replicate 1)?
**A.** Its value is 0.9236.

**Q.** What about the “SCRIB relative mRNA level” value ([1]; replicate 1) of the same molecule?
**A.** The value was 0.9974.

**Q.** What about the “SNTB2 relative mRNA level” value ([1]; replicate 1) of the same molecule?
**A.** The value was 1.021.

**Q.** What about the “SNX27 relative mRNA level” value ([1]; replicate 1) of the same molecule?
**A.** The value was 1.06.

**Q.** What about the “SYNJ2BP relative mRNA level” value ([1]; replicate 1) of the same molecule?
**A.** The value was 0.9318.

**Q.** What about the “TAX1BP3 relative mRNA level” value ([1]; replicate 1) of the same molecule?
**A.** The value was 0.9978.

**Q.** What about the “p53 relative mRNA level” value ([1]; replicate 1) of the same molecule?
**A.** Its value is 1.205.

**Q.** And the “DLG1 relative mRNA level” value ([1]; replicate 2)?
**A.** The value was 0.9789.

**Q.** And the “GFP relative mRNA level” value ([1]; replicate 2)?
**A.** The value was 0.361.

**Q.** And the “MAGI1 relative mRNA level” value ([1]; replicate 2)?
**A.** The value was 1.194.

**Q.** What about the “RPLP0 relative mRNA level” value ([1]; replicate 2) of the same molecule?
**A.** The value was 0.9077.

**Q.** And the “SCRIB relative mRNA level” value ([1]; replicate 2)?
**A.** Its value is 0.9906.

**Q.** What about the “SNTB2 relative mRNA level” value ([1]; replicate 2) of the same molecule?
**A.** Its value is 1.145.

**Q.** And the “SNX27 relative mRNA level” value ([1]; replicate 2)?
**A.** The value was 1.0167.

**Q.** And the “SYNJ2BP relative mRNA level” value ([1]; replicate 2)?
**A.** Its value is 1.042.

**Q.** What about the “TAX1BP3 relative mRNA level” value ([1]; replicate 2) of the same molecule?
**A.** The value was 1.009.

**Q.** And the “p53 relative mRNA level” value ([1]; replicate 2)?
**A.** The value was 1.147.

**Q.** What about the “DLG1 relative mRNA level” value ([1]; replicate 3) of the same molecule?
**A.** The value was 0.8765.

**Q.** What about the “GFP relative mRNA level” value ([1]; replicate 3) of the same molecule?
**A.** The value was 0.3884.

**Q.** What about the “MAGI1 relative mRNA level” value ([1]; replicate 3) of the same molecule?
**A.** The value was 0.864.

**Q.** What about the “RPLP0 relative mRNA level” value ([1]; replicate 3) of the same molecule?
**A.** The value was 1.0145.

**Q.** And the “SCRIB relative mRNA level” value ([1]; replicate 3)?
**A.** The value was 0.879.

**Q.** What about the “SNTB2 relative mRNA level” value ([1]; replicate 3) of the same molecule?
**A.** The value was 0.9516.

**Q.** And the “SNX27 relative mRNA level” value ([1]; replicate 3)?
**A.** The value was 0.8492.

**Q.** What about the “SYNJ2BP relative mRNA level” value ([1]; replicate 3) of the same molecule?
**A.** The value was 0.8794.

**Q.** What about the “TAX1BP3 relative mRNA level” value ([1]; replicate 3) of the same molecule?
**A.** Its value is 0.9092.

**Q.** And the “p53 relative mRNA level” value ([1]; replicate 3)?
**A.** Its value is 0.9937.

**Q.** What about the “HPV16 E6 relative mRNA level” value ([1]; replicate 1) of the same molecule?
**A.** Its value is 0.5053.

**Q.** And the “HPV16 E6 relative mRNA level” value ([1]; replicate 2)?
**A.** The value was 0.4889.

**Q.** What about the “HPV16 E6 relative mRNA level” value ([1]; replicate 3) of the same molecule?
**A.** The value was 0.4569.

**Q.** And the “change of HUWE1 concentration” value [2]?
**A.** The value was “decreased by threefold”.

**Q.** And the “E6AP relative protein level” value ([3]; replicate 1)?
**A.** Its value is 0.1109.

**Q.** And the “MAGI1 relative protein level” value ([3]; replicate 1)?
**A.** Its value is 1.104.

**Q.** What about the “SNX27 relative protein level” value ([3]; replicate 1) of the same molecule?
**A.** Its value is 1.182.

**Q.** And the “p53 relative protein level” value ([3]; replicate 1)?
**A.** The value was 0.0349.

**Q.** And the “E6AP relative protein level” value ([3]; replicate 2)?
**A.** Its value is 0.2467.

**Q.** What about the “MAGI1 relative protein level” value ([3]; replicate 2) of the same molecule?
**A.** Its value is 0.7612.

**Q.** What about the “SNX27 relative protein level” value ([3]; replicate 2) of the same molecule?
**A.** Its value is 0.5109.

**Q.** What about the “p53 relative protein level” value ([3]; replicate 2) of the same molecule?
**A.** Its value is 0.03479.

**Q.** And the “E6AP relative protein level” value ([3]; replicate 3)?
**A.** Its value is 0.1353.

**Q.** What about the “MAGI1 relative protein level” value ([3]; replicate 3) of the same molecule?
**A.** Its value is 0.6199.

**Q.** What about the “SNX27 relative protein level” value ([3]; replicate 3) of the same molecule?
**A.** Its value is 0.8346.

**Q.** What about the “p53 relative protein level” value ([3]; replicate 3) of the same molecule?
**A.** Its value is 0.01425.
